Laboratory results published in publication PMC10018365, “Cryo-EM structure of the fully assembled Elongator complex” (Nucleic Acids Research, 2023).

Assays:
[1] = biological target: T1, Homo sapiens Elp123 subcomplex with Elp1 Δ1132–1224 (Homo sapiens, UniProt O95163 1-1332; Q6IA86 1-826; Q9H9T3 1-547, Δ1132–1224); assay: pull-down; 10 μg bait, 20 μg prey; Elp123 on StrepTactin Sepharose by Twin-Strep-tagged Elp3, or Elp456 on anti-DYKDDDDK resin by FLAG-tagged Elp6; 30-60 min at 4°C; washes in 20 mM HEPES pH 7.5, 100 mM NaCl, 1 mM DTT, 0.05% Tween 20; SDS-PAGE with Coomassie or silver stain; also with ATP and bulk tRNA; settings: both partners purified
T1 construct: Elp2, human, ORF; Elp3, human, ORF; source: Sf9-3 insect cells (baculovirus, biGBac), purified (StrepTrap, heparin, Superose 6); not shown: Twin-Strep-tag, C-terminal, kept; copies: 2 + 2 + 2

[2] = biological target: T2, Homo sapiens Elp123 subcomplex, wild type (Homo sapiens, UniProt O95163 1-1332; Q6IA86 1-826; Q9H9T3 1-547); assay: SEC; Elp123 incubated with the respective Elp456 for 30 min at 25°C at 1:2 weight ratio, then Superose 6 Increase 10/300 GL in 20 mM HEPES pH 7.5, 100 mM NaCl, 5 mM DTT; settings: both partners purified
T2 construct: Elp1, human, ORF; Elp2, human, ORF; Elp3, human, ORF; also called human Elp123; source: Sf9-3 insect cells (baculovirus, biGBac), purified (StrepTrap, heparin, Superose 6); not shown: Twin-Strep-tag, C-terminal, kept; copies: 2 + 2 + 2

[3] = biological target: T2, Homo sapiens Elp123 subcomplex, wild …; assay: pull-down; 10 μg bait, 20 μg prey; Elp123 on StrepTactin Sepharose by Twin-Strep-tagged Elp3, or Elp456 on anti-DYKDDDDK resin by FLAG-tagged Elp6; 30-60 min at 4°C; washes in 20 mM HEPES pH 7.5, 100 mM NaCl, 1 mM DTT, 0.05% Tween 20; SDS-PAGE with Coomassie or silver stain; also with ATP and bulk tRNA; settings: both partners purified
[4] = biological target: the molecule itself; assay: cryo-EM structure; ScElongator purified from overexpressing yeast, native sample (4.35 Å) and BS3-stabilised sample (6.6 Å; two-lobed map 17.2 Å); sample buffer 20 mM HEPES pH 7.5, 100 mM NaCl, 3 mM DTT

T2 sequence (O95163 whole entry, chain 1 of 3): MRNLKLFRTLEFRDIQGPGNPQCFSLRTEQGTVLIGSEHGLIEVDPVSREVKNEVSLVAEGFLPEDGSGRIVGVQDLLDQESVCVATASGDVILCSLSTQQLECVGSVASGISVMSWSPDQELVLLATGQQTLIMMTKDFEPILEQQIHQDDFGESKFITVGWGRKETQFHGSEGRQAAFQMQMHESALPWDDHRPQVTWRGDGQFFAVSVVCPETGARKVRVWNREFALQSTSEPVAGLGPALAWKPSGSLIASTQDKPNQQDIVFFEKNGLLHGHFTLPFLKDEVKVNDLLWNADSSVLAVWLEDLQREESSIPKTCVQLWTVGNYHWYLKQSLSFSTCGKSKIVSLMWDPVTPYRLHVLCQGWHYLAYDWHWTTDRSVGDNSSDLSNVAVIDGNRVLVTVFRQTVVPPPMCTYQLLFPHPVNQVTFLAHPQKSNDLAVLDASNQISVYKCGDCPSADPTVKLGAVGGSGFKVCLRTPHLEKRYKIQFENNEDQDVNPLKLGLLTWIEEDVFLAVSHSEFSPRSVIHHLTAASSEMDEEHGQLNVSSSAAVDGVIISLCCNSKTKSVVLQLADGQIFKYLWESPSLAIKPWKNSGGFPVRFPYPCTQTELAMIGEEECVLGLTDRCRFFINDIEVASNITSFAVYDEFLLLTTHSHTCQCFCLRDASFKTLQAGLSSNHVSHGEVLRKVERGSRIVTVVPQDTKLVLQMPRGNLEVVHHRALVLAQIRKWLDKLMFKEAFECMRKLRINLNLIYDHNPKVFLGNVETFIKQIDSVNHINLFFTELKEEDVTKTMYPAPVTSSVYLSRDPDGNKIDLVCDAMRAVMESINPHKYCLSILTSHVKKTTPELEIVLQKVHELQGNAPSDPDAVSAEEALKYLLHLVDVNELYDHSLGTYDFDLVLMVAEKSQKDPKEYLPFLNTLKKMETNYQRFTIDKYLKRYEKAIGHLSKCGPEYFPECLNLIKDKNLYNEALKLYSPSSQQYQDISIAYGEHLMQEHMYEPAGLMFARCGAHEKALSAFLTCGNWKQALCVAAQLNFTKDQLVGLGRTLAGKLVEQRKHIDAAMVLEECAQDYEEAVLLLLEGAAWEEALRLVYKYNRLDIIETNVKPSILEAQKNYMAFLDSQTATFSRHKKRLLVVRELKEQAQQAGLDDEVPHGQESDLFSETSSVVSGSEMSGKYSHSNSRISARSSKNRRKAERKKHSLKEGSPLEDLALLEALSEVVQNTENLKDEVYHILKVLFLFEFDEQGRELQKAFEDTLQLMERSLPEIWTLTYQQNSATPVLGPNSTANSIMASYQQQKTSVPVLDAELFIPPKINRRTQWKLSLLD
T2 sequence (Q6IA86 whole entry, chain 2 of 3): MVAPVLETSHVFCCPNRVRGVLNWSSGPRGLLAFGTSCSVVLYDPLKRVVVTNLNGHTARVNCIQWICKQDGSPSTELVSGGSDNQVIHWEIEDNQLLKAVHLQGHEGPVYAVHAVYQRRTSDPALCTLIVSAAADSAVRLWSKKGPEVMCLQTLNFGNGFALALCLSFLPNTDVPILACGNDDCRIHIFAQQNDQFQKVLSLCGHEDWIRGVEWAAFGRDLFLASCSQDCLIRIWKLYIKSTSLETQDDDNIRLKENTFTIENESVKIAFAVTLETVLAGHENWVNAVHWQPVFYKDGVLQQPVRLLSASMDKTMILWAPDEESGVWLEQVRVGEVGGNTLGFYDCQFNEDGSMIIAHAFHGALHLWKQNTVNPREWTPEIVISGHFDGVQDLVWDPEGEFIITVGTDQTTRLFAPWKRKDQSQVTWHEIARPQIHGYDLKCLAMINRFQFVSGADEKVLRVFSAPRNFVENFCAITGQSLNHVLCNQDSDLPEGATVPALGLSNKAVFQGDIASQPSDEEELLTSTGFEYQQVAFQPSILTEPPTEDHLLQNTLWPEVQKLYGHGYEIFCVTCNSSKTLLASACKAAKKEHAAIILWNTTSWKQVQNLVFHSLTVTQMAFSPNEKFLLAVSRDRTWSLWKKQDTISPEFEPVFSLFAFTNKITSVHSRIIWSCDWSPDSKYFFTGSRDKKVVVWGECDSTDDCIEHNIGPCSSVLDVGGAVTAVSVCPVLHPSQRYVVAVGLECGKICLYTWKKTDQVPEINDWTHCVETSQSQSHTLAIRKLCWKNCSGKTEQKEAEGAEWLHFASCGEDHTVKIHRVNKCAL
T2 sequence (Q9H9T3 whole entry, chain 3 of 3): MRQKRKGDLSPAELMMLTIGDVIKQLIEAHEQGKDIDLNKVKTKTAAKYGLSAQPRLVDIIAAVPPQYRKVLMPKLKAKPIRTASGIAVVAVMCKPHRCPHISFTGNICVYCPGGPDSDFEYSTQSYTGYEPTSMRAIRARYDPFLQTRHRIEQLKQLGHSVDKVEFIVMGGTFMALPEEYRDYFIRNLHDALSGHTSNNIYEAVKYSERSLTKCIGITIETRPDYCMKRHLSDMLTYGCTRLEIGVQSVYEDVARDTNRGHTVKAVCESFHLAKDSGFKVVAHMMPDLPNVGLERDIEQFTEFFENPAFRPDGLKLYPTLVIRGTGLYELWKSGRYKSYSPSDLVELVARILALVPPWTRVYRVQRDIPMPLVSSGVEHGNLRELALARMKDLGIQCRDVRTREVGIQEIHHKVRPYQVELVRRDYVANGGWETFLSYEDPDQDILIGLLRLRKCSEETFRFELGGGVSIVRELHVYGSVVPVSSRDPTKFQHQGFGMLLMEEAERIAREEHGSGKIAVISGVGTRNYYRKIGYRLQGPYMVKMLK
T1 sequence (O95163 other isoform, or with tags, fused parts or gaps Δ1132–1224 | Δ1132–1224 | mutant, chain 1 of 3): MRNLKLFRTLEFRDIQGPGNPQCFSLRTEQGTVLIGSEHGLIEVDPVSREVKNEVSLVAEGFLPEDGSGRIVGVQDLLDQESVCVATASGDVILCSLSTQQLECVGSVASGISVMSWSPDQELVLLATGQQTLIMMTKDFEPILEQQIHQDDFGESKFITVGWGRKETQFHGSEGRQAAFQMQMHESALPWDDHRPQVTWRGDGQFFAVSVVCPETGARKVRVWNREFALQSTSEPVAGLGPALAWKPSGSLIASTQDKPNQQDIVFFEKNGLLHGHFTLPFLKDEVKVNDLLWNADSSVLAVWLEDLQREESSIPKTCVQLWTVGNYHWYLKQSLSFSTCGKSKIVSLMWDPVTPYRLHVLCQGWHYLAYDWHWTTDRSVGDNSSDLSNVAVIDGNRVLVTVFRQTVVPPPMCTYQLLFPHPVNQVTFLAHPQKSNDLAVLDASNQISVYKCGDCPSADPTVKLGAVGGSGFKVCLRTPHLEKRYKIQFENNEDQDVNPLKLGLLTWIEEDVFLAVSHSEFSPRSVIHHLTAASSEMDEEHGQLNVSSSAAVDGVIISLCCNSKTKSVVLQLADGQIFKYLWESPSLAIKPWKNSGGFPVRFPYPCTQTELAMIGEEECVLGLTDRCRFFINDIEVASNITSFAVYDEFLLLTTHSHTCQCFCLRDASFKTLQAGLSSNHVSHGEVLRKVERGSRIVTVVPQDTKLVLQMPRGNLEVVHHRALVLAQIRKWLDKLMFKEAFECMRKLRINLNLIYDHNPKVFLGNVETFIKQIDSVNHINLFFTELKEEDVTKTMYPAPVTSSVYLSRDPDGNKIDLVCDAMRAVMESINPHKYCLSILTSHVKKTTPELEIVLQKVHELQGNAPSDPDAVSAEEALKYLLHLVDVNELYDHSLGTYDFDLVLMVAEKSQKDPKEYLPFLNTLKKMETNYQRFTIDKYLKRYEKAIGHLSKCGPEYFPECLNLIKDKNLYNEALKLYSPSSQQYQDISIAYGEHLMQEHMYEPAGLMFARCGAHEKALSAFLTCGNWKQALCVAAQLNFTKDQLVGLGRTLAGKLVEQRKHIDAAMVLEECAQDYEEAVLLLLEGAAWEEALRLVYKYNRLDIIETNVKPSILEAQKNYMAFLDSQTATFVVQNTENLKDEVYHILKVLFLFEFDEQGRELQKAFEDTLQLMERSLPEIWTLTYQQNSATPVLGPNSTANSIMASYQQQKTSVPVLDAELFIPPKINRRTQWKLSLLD
T1 sequence (Q6IA86 whole entry, stated change not applied, chain 2 of 3): as the sequence (Q6IA86 whole entry, chain 2 of 3) above
T1 sequence (Q9H9T3 whole entry, stated change not applied, chain 3 of 3): as the sequence (Q9H9T3 whole entry, chain 3 of 3) above

B1: Homo sapiens Elp456 subcomplex, wild type (complex)
chain 1: MAAVATCGSVAASTGSAVATASKSNVTSFQRRGPRASVTNDSGPRLVSIAGTRPSVRNGQLLVSTGLPALDQLLGGGLAVGTVLLIEEDKYNIYSPLLFKYFLAEGIVNGHTLLVASAKEDPANILQELPAPLLDDKCKKEFDEDVYNHKTPESNIKMKIAWRYQLLPKMEIGPVSSSRFGHYYDASKRMPQELIEASNWHGFFLPEKISSTLKVEPCSLTPGYTKLLQFIQNIIYEEGFDGSNPQKKQRNILRIGIQNLGSPLWGDDICCAENGGNSHSLTKFLYVLRGLLRTSLSACIITMPTHLIQNKAIIARVTTLSDVVVGLESFIGSERETNPLYKDYHGLIHIRQIPRLNNLICDESDVKDLAFKLKRKLFTIERLHLPPDLSDTVSRSSKMDLAESAKRLGPGCGMMAGGKKHLDF
chain 2: MLDSLLALGGLVLLRDSVEWEGRSLLKALVKKSALCGEQVHILGCEVSEEEFREGFDSDINNRLVYHDFFRDPLNWSKTEEAFPGGPLGALRAMCKRTDPVPVTIALDSLSWLLLRLPCTTLCQVLHAVSHQDSCPGDSSSVGKVSVLGLLHEELHGPGPVGALSSLAQTEVTLGGTMGQASAHILCRRPRQRPTDQTQWFSILPDFSLDLQEGPSVESQPYSDPHIPPVDPTTHLTFNLHLSKKEREARDSLILPFQFSSEKQQALLRPRPGQATSHIFYEPDAYDDLDQEDPDDDLDI
chain 3: MFVELNNLLNTTPDRAEQGKLTLLCDAKTDGSFLVHHFLSFYLKANCKVCFVALIQSFSHYSIVGQKLGVSLTMARERGQLVFLEGLKSAVDVVFQAQKEPHPLQFLREANAGNLKPLFEFVREALKPVDSGEARWTYPVLLVDDLSVLLSLGMGAVAVLDFIHYCRATVCWELKGNMVVLVHDSGDAEDEENDILLNGLSHQSHLILRAEGLATGFCRDVHGQLRILWRRPSQPAVHRDQSFTYQYKIQDKSVSFFAKGMSPAVL
notes: Elp4, human, ORF; Elp5, human, ORF; Elp6, human, ORF; also called human Elp456; source: Hi-5 insect cells (baculovirus, biGBac), purified (IgG Sepharose with TEV elution, Superose 6); not shown: FLAG, C-terminal, kept; Protein A, C-terminal, cleaved; copies: 2 + 2 + 2
Which results are given for B1?
binding result [1]: binds; binding result [2]: binds

B2: Homo sapiens Elp456 subcomplex with Elp4 Δ133–175 (complex)
chain 1: MAAVATCGSVAASTGSAVATASKSNVTSFQRRGPRASVTNDSGPRLVSIAGTRPSVRNGQLLVSTGLPALDQLLGGGLAVGTVLLIEEDKYNIYSPLLFKYFLAEGIVNGHTLLVASAKEDPANILQELPAPSSSRFGHYYDASKRMPQELIEASNWHGFFLPEKISSTLKVEPCSLTPGYTKLLQFIQNIIYEEGFDGSNPQKKQRNILRIGIQNLGSPLWGDDICCAENGGNSHSLTKFLYVLRGLLRTSLSACIITMPTHLIQNKAIIARVTTLSDVVVGLESFIGSERETNPLYKDYHGLIHIRQIPRLNNLICDESDVKDLAFKLKRKLFTIERLHLPPDLSDTVSRSSKMDLAESAKRLGPGCGMMAGGKKHLDF
chain 2: B1 chain 2
chain 3: B1 chain 3
notes: Elp5, human, ORF; Elp6, human, ORF; source: Hi-5 insect cells (baculovirus, biGBac), purified (IgG Sepharose with TEV elution, Superose 6); not shown: FLAG, C-terminal, kept; Protein A, C-terminal, cleaved; copies: 2 + 2 + 2
Does B2 bind [3]?
Result: binds

B3: Saccharomyces cerevisiae Elp1 (natural protein, UniProt Q06706 1-1349, looked up)
chain: MVEHDKSGSKRQELRSNMRNLITLNKGKFKPTASTAEGDEDDLSFTLLDSVFDTLSDSITCVLGSTDIGAIEVQQFMKDGSRNVLASFNIQTFDDKLLSFVHFADINQLVFVFEQGDIITATYDPVSLDPAETLIEIMGTIDNGIAAAQWSYDEETLAMVTKDRNVVVLSKLFEPISEYHLEVDDLKISKHVTVGWGKKETQFRGKGARAMEREALASLKASGLVGNQLRDPTMPYMVDTGDVTALDSHEITISWRGDCDYFAVSSVEEVPDEDDETKSIKRRAFRVFSREGQLDSASEPVTGMEHQLSWKPQGSLIASIQRKTDLGEEDSVDVIFFERNGLRHGEFDTRLPLDEKVESVCWNSNSEALAVVLANRIQLWTSKNYHWYLKQELYASDISYVKWHPEKDFTLMFSDAGFINIVDFAYKMAQGPTLEPFDNGTSLVVDGRTVNITPLALANVPPPMYYRDFETPGNVLDVACSFSNEIYAAINKDVLIFAAVPSIEEMKKGKHPSIVCEFPKSEFTSEVDSLRQVAFINDSIVGVLLDTDNLSRIALLDIQDITQPTLITIVEVYDKIVLLRSDFDYNHLVYETRDGTVCQLDAEGQLMEITKFPQLVRDFRVKRVHNTSAEDDDNWSAESSELVAFGITNNGKLFANQVLLASAVTSLEITDSFLLFTTAQHNLQFVHLNSTDFKPLPLVEEGVEDERVRAIERGSILVSVIPSKSSVVLQATRGNLETIYPRIMVLAEVRKNIMAKRYKEAFIVCRTHRINLDILHDYAPELFIENLEVFINQIGRVDYLNLFISCLSEDDVTKTKYKETLYSGISKSFGMEPAPLTEMQIYMKKKMFDPKTSKVNKICDAVLNVLLSNPEYKKKYLQTIITAYASQNPQNLSAALKLISELENSEEKDSCVTYLCFLQDVNVVYKSALSLYDVSLALLVAQKSQMDPREYLPFLQELQDNEPLRRKFLIDDYLGNYEKALEHLSEIDKDGNVSEEVIDYVESHDLYKHGLALYRYDSEKQNVIYNIYAKHLSSNQMYTDAAVAYEMLGKLKEAMGAYQSAKRWREAMSIAVQKFPEEVESVAEELISSLTFEHRYVDAADIQLEYLDNVKEAVALYCKAYRYDIASLVAIKAKKDELLEEVVDPGLGEGFGIIAELLADCKGQINSQLRRLRELRAKKEENPYAFYGQETEQADDVSVAPSETSTQESFFTRYTGKTGGTAKTGASRRTAKNKRREERKRARGKKGTIYEEEYLVQSVGRLIERLNQTKPDAVRVVEGLCRRNMREQAHQIQKNFVEVLDLLKANVKEIYSISEKDRERVNENGEVYYIPEIPVPEIHDFPKSHIVDF
notes: Elp1, S. cerevisiae, full-length ORF; also called ScElp1; source: S. cerevisiae DS1-2b, overexpressed, purified within ScElongator
Does B3 bind [4]?
Result: binds
